# Measurements taken from patent publication US20250388666A1 (BRIGHAM AND WOMEN S HOSPITAL, published 2025).
# Positions count from the first letter of the chain named. In names and notes the source's numbering stands.
# T1: CEACAM1 (Sino Biological) (human, UniProt P13688 35-428, limits assumed)
# T1 construct: may be the same as CEACAM1-HIS; also called hCEACAM1; biotinylated soluble CEACAM1
# T1 sequence: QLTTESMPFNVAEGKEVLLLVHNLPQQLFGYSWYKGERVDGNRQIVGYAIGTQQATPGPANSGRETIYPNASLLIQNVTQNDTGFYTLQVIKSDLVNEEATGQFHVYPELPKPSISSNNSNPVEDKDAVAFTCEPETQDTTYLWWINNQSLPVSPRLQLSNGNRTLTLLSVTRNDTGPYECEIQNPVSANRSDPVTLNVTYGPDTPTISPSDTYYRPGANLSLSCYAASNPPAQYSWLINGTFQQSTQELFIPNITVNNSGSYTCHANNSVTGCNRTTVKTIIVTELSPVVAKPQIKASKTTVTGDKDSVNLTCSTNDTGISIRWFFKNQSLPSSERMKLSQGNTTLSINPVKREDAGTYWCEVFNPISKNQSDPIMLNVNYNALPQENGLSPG
# T2: CEACAM1-HIS (Sino Biologics Inc.) (Homo sapiens (Human), UniProt P13688 35-428)
# T2 construct: bought; not shown: His tag
# T2 sequence: T1 sequence
# T3: human GST-CEACAM1 (human, UniProt P13688 35-141, limits assumed)
# T3 construct: printed both as GST-CEACAM1 and CEACAM1-GST; also called human CEACAM1-GST protein; hCEACAM1-GST; not shown: GST tag
# T3 sequence: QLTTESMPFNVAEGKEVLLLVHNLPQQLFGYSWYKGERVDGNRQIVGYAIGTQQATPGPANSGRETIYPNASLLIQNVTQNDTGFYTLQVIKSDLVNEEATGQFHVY
# B1: He17/L5 (antibody, IgG4, V domains shown)
# VH: EVQLLESGGGLVQPGGSLRLSCAASGFSFSDYYLYWVRQAPGKGLEWVATISVGGGQTSYADSVKGRFTISRDNSKNTLYLQMNSLRAEDTAMYYCTRARTYGPAWFAYWGQGTLVTVSS
# VL: DIVMTQSPDSLAVSLGERATINCKSSQSLLNSANQKNYLAWYQQKPGQPPKLLIYFASTRESGVPDRFSGSGSGTDFTLTISSLQAEDVAVYYCQSHYPFAFTFGGGTKVEIK
# notes: IgG4 S241P, kappa
# B2: Parent VH/L19 (antibody, IgG4, V domains shown)
# VH: B1 VH with A99G, R100L, T101Y
# VL: B1 VL with Y98I, P99Y, F100P, A101N
# notes: IgG4 S241P, kappa
# B3: He17/L6 (antibody, IgG4, V domains shown)
# VH: B1 VH
# VL: B1 VL with A101S
# notes: IgG4 S241P, kappa
# B4: Parent VH/L4 #1 (antibody, IgG4, V domains shown)
# VH: B1 VH with A99G, R100L, T101Y
# VL: B1 VL with Y98F, F100Y, A101Y, F102Y
# notes: IgG4 S241P, kappa
# B5: Parent VH/L3 (antibody, IgG4, V domains shown)
# VH: B1 VH with A99G, R100L, T101Y
# VL: B1 VL with Y98F, A101P
# notes: IgG4 S241P, kappa
# B6: Parent VH/L5 (antibody, IgG4, V domains shown)
# VH: B1 VH with A99G, R100L, T101Y
# VL: B1 VL
# notes: IgG4 S241P, kappa
# B7: Parent VH/L20 (antibody, IgG4, V domains shown)
# VH: B1 VH with A99G, R100L, T101Y
# VL: B1 VL with Y98F, F100Y, A101P, F102L
# notes: IgG4 S241P, kappa
# B8: Parent VH/L2 (antibody, IgG4, V domains shown)
# VH: B1 VH with A99G, R100L, T101Y
# VL: B1 VL with A101P, F102Y
# notes: IgG4 S241P, kappa
# B9: He17/L18 (antibody, IgG4, V domains shown)
# VH: B1 VH
# VL: B1 VL with Y98F, F100Y, A101P
# notes: IgG4 S241P, kappa
# B10: He17/L17 (antibody, IgG4, V domains shown)
# VH: B1 VH
# VL: B1 VL with F100Y, A101P, F102Y
# notes: IgG4 S241P, kappa
# B11: He17/L20 (antibody, IgG4, V domains shown)
# VH: B1 VH
# VL: B1 VL with Y98F, F100Y, A101P, F102L
# notes: IgG4 S241P, kappa
# B12: Parent VH/L17 (antibody, IgG4, V domains shown)
# VH: B1 VH with A99G, R100L, T101Y
# VL: B1 VL with F100Y, A101P, F102Y
# notes: IgG4 S241P, kappa
# B13: He17/L19 (antibody, IgG4, V domains shown)
# VH: B1 VH
# VL: B1 VL with Y98I, P99Y, F100P, A101N
# notes: IgG4 S241P, kappa
# B14: Parent VH/L6 (antibody, IgG4, V domains shown)
# VH: B1 VH with A99G, R100L, T101Y
# VL: B1 VL with A101S
# notes: IgG4 S241P, kappa
# B15: He17/Parent VL (antibody, IgG4, V domains shown)
# VH: B1 VH
# VL: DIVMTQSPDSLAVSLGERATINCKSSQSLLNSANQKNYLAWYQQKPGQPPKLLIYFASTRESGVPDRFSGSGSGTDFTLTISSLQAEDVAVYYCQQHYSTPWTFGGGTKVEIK
# notes: IgG4 S241P, kappa
# B16: VH0/Vκ1 (antibody, V domains shown)
# VH: EVQLVESGGDLVKPGGSLKLACAASGFIFSSHGMSWVRQTPDKRLEWVATISSGGTYTYYPDSVKGRFTISRDNDKNTLYLQMNSLKSEDTAMYYCARHDFDYDAAWFAYWGQGTLVTVSS
# VL: QIVLTQSPALLSLSPGERATMSCSANSSVSYMYWYRQKPGQAPKPWIYLTSNLASGVPARFSGSGSGTDYTLTISSLEAEDFATYYCQQWSSNPPTFGQGTKLEIK
# B17: VH4/Vκ2 (antibody, V domains shown)
# VH: EVQLLESGGGLVQPGGSLRLSCAASGFIFSSHGMSWVRQAPGKGLEWVSTISSGGTYTYYADSVKGRFTISRDNSKNTLYLQMNSLRAEDTAVYYCARHDFDYDAAWFAYWGQGTLVTVSS
# VL: B16 VL with Q1E, L10T, M21L, S24R, R36Q, K44R, L53R, S55T, A79P
# B18: VH3/Vκ1 (antibody, V domains shown)
# VH: B17 VH with S49A, V93M
# VL: B16 VL
# B19: VH3/Vκ2 (antibody, V domains shown)
# VH: B17 VH with S49A, V93M
# VL: B16 VL with Q1E, L10T, M21L, S24R, R36Q, K44R, L53R, S55T, A79P
# B20: VH4/Vκ1 (antibody, V domains shown)
# VH: B17 VH
# VL: B16 VL
# B21: VH1/Vκ0 (antibody, IgG4, V domains shown)
# VH: B1 VH with Q57N, A61P, A99G, R100L, T101Y
# VL: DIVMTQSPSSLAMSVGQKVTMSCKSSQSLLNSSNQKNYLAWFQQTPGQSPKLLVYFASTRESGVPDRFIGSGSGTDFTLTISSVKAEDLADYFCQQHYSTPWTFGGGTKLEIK
# notes: IgG4 (S241P), kappa
# B22: VH2/Vκ4 (antibody, IgG4, V domains shown)
# VH: B1 VH with Q57N, A99G, R100L, T101Y
# VL: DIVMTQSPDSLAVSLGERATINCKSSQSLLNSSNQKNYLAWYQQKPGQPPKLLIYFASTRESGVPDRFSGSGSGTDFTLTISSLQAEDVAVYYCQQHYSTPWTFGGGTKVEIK
# notes: IgG4 (S241P), kappa
# Molecular target: T1, CEACAM1 (Sino Biological)
# Test: SPR single-cycle
# How it was run: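 Humanized affinity-matured IgGs from crude supernatants captured on Protein A to ~100 RU, with CEACAM1 analyte injected at 25–100 nM (three-point, two-fold) in HBS-P+ without regeneration. 200 s association per injection, 300 s single dissociation; reference-channel and blank subtracted.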
Kd,fold better than Parent (KD),Binder
81 nM,1.97 fold,B1
77 nM,2.08 fold,B2
79 nM,2.01 fold,B3
103 nM,1.54 fold,B4
63 nM,2.53 fold,B5
66 nM,2.42 fold,B6
87 nM,1.83 fold,B7
70 nM,2.26 fold,B8
98 nM,1.62 fold,B9
104 nM,1.53 fold,B10
99 nM,1.61 fold,B11
76 nM,2.08 fold,B12
135 nM,1.18 fold,B13
57 nM,2.81 fold,B14
128 nM,1.24 fold,B15

# Molecular target: T2, CEACAM1-HIS (Sino Biologics Inc.)
# Test: SPR single-cycle, IgG on Protein A
# Protocol: As an alternative approach to assess the binding of the antibody combinations and the control antibodies to CEACAM1, a kinetic analysis was performed on a Biacore T200 running Biacore T200 Evaluation Software V2.0.1. All experiments were run at 25° C. with HBS-P+ running buffer (pH 7.4).
# In order to assess the binding of all Composite Human Antibody™ variants, single cycle kinetic analysis was performed on the supernatants of all the transiently transfected HEK EBNA cells. Purified chimeric antibody and purified chimeric antibody spiked into HEK EBNA media were used as positive controls. Supernatants were diluted in HBS-P+ to a concentration of 1 μg/mL (as determined by an IgG quantitation ELISA). At the start of each cycle, antibodies were loaded onto Fc2, Fc3 and Fc4 of a Protein A chip and captured at a flow rate of 8 μL/min to give an RU of ˜100. The surface was then allowed to stabilize. Single cycle kinetic data was obtained at a flow rate of […] to minimize any potential mass transfer effects. Multiple repeats of the chimeric antibody were performed to check the stability of the surface and analyte over the kinetic cycles. The signal from the reference channel Fc1 (no antibody) was subtracted from that of Fc2, Fc3 and Fc4 to correct for differences in non-specific binding to a reference surface. A 5 point 2-fold dilution range from 3.125 to 50 nM CEACAM1 without regeneration between each concentration was used. The association phase for the 5 injections of increasing concentrations of CEACAM1 was monitored for 150 seconds and a single dissociation phase was measured for 150 seconds following the last injection of CEACAM1. Regeneration of the Protein A was conducted using 2 injections of 10 mM glycine-HCL pH 1.5 followed by a stabilization period of 500 seconds.
# In the raw sensorgrams for the single cycle kinetics, the signal from each antibody blank run (no CEACAM1) was subtracted to correct for differences in surface stability.
Kd,relative KD to chimeric parental antibody,Binder
56.1 nM,1.3 ratio,B16
3950 nM,91.4 ratio,B17
1500 nM,34.7 ratio,B18
265 nM,6.1 ratio,B19
243 nM,5.6 ratio,B20
76.6 nM,1.8 ratio,B21
77.8 nM,1.8 ratio,B22

# Molecular target: T3, human GST-CEACAM1
# Test: competition ELISA vs murine parent antibody
# Protocol: The binding of the purified chimeric antibody to human CEACAM1 was assessed in a competition ELISA assay. Nunc Immuno MaxiSorp 96 well flat bottom microtitre plates were pre-coated with 1 μg/ml human GST-CEACAM1 in 1×PBS, overnight at 4° C. The following day the plates were blocked for 1 hour at room temperature with 2% BSA/PBS before washing 2× with PBS/0.05% Tween 20 pH 7.4.
# The binding of the purified antibodies to human CEACAM1 were assessed in a competition ELISA assay as described above. The ability of each variant to compete against the murine parental antibody for binding to the GST-CEACAM1 was compared to that of the chimeric antibody (VH0/Vκ0), which was included on each plate.
row,average relative IC50 (normalized to chimeric antibody),Binder
1,2.5 ratio,B16
2,1 ratio,B21
3,7.2 ratio,B22
